How the values were obtained:
Conditions in all cases: partners not purified
[1] = target: T1, integrin αIIbβ3 (human (endogenous in platelets), UniProt P08514-1 32-1039; P05106-1 27-788); assay: flow cytometry on cells; citrated whole blood of healthy controls stimulated with ADP (10 μM); platelets gated on FSC/SSC and CD42b; bound fibrinogen detected with FITC anti-bFG (clone 9F9); platelet activation index = (MFI test tube - MFI with EDTA 7 mM) / MFI with EDTA
T1 construct: integrin alpha-IIb (αIIb, GPIIb), human; integrin beta-3 (β3, GPIIIa, CD61), human; The platelets of the heterozygous patients carry wild-type and variant integrin together and are not made molecules; also called glycoprotein (GP) IIb/IIIa receptor complex; GPIIb/IIIa; source: endogenous, on platelets in citrated whole blood of healthy blood donors

[2] = target: T1, integrin αIIbβ3; assay: flow cytometry on cells; citrated whole blood of healthy controls stimulated with TRAP-6 (20 μM); platelets gated on FSC/SSC and CD42b; bound fibrinogen detected with FITC anti-bFG (clone 9F9); platelet activation index = (MFI test tube - MFI with EDTA 7 mM) / MFI with EDTA
[3] = target: T1, integrin αIIbβ3; assay: flow cytometry on cells; citrated whole blood of healthy controls stimulated with ADP (10 μM); platelets gated on FSC/SSC and CD42b; bound fibrinogen detected with FITC anti-bFG (clone 9F9); platelet activation index = (MFI test tube - MFI with EDTA 7 mM) / MFI with EDTA; remark: listed apart in the source
[4] = target: T1, integrin αIIbβ3; assay: flow cytometry on cells; citrated whole blood of healthy controls stimulated with TRAP-6 (20 μM); platelets gated on FSC/SSC and CD42b; bound fibrinogen detected with FITC anti-bFG (clone 9F9); platelet activation index = (MFI test tube - MFI with EDTA 7 mM) / MFI with EDTA; remark: listed apart in the source

B1: fibrinogen (complex, human (endogenous in whole blood))
chain 1: ADSGEGDFLAEGGGVRGPRVVERHQSACKDSDWPFCSDEDWNYKCPSGCRMKGLIDEVNQDFTNRINKLKNSLFEYQKNNKDSHSLTTNIMEILRGDFSSANNRDNTYNRVSEDLRSRIEVLKRKVIEKVQHIQLLQKNVRAQLVDMKRLEVDIDIKIRSCRGSCSRALAREVDLKDYEDQQKQLEQVIAKDLLPSRDRQHLPLIKMKPVPDLVPGNFKSQLQKVPPEWKALTDMPQMRMELERPGGNEITRGGSTSYGTGSETESPRNPSSAGSWNSGSSGPGSTGNRNPGSSGTGGTATWKPGSSGPGSTGSWNSGSSGTGSTGNQNPGSPRPGSTGTWNPGSSERGSAGHWTSESSVSGSTGQWHSESGSFRPDSPGSGNARPNNPDWGTFEEVSGNVSPGTRREYHTEKLVTSKGDKELRTGKEKVTSGSTTTTRRSCSKTVTKTVIGPDGHKEVTKEVVTSEDGSDCPEAMDLGTLSGIGTLDGFRHRHPDEAAFFDTASTGKTFPGFFSPMLGEFVSETESRGSESGIFTNTKESSSHHPGIAEFPSRGKSSSYSKQFTSSTSYNRGDSTFESKSYKMADEAGSEADHEGTHSTKRGHAKSRPVRGIHTSPLGKPSLSP
chain 2: QGVNDNEEGFFSARGHRPLDKKREEAPSLRPAPPPISGGGYRARPAKAAATQKKVERKAPDAGGCLHADPDLGVLCPTGCQLQEALLQQERPIRNSVDELNNNVEAVSQTSSSSFQYMYLLKDLWQKRQKQVKDNENVVNEYSSELEKHQLYIDETVNSNIPTNLRVLRSILENLRSKIQKLESDVSAQMEYCRTPCTVSCNIPVVSGKECEEIIRKGGETSEMYLIQPDSSVKPYRVYCDMNTENGGWTVIQNRQDGSVDFGRKWDPYKQGFGNVATNTDGKNYCGLPGEYWLGNDKISQLTRMGPTELLIEMEDWKGDKVKAHYGGFTVQNEANKYQISVNKYRGTAGNALMDGASQLMGENRTMTIHNGMFFSTYDRDNDGWLTSDPRKQCSKEDGGGWWYNRCHAANPNGRYYWGGQYTWDMAKHGTDDGVVWMNWKGSWYSMRKMSMKIRPFFPQQ
chain 3: YVATRDNCCILDERFGSYCPTTCGIADFLSTYQTKVDKDLQSLEDILHQVENKTSEVKQLIKAIQLTYNPDESSKPNMIDAATLKSRKMLEEIMKYEASILTHDSSIRYLQEIYNSNNQKIVNLKEKVAQLEAQCQEPCKDTVQIHDITGKDCQDIANKGAKQSGLYFIKPLKANQQFLVYCEIDGSGNGWTVFQKRLDGSVDFKKNWIQYKEGFGHLSPTGTTEFWLGNEKIHLISTQSAIPYALRVELEDWNGRTSTADYAMFKVGPEADKYRLTYAYFAGGDAGDAFDGFDFGDDPSDKFFTSHNGMQFSTWDNDNDKFEGNCAEQDGSGWWMNKCHAGHLNGVYYQGGTYSKASTPNGYDNGIIWATWKTRWYSMKKTTMKIIPFNRLTIGEGQQHHLGGAKQAGDV
notes: fibrinogen alpha chain, human; fibrinogen beta chain, human; fibrinogen gamma chain, human; Plasma fibrinogen of the donor's own blood; no fibrinogen was added; also called FG; soluble FG; source: endogenous, in citrated whole blood of healthy blood donors; copies: + +
**Q.** Which “platelet activation index (PAI) by bound fibrinogen, mean” value [1] does the source give for B1 here?
**A.** 19 fold increase in MFI over EDTA

**Q.** And the “platelet activation index (PAI) by bound fibrinogen, median” value [1]?
**A.** 17 fold increase in MFI over EDTA

**Q.** What about the “platelet activation index (PAI) by bound fibrinogen, median” value [2] of the same binder?
**A.** 16 fold increase in MFI over EDTA

**Q.** What about the “platelet activation index (PAI) by bound fibrinogen, median” value [3] of the same binder?
**A.** 19 fold increase in MFI over EDTA

**Q.** And the “platelet activation index (PAI) by bound fibrinogen, mean” value [4]?
**A.** 15 fold increase in MFI over EDTA

**Q.** What about the “platelet activation index (PAI) by bound fibrinogen, median” value [4] of the same binder?
**A.** 13 fold increase in MFI over EDTA
